Experiment [1] addresses extracellular domain of human LEPR with an N-terminal myc-myc tag, GPI-anchored on HEK293 cells (human) (UniProt P48357). In words: FACS, secondary alone, HEK293/hLEPR-GPI, with 1 µM Leptin. In general terms: A flow cytometer gives signals particle by particle.
Experiment [2] shares this target. In words: FACS, secondary alone, HEK293/hLEPR-GPI, no added Leptin.

Chain of extracellular domain of human LEPR with an N-terminal myc-myc tag, GPI-anchored on HEK293 cells (human) (P48357 22-839 limits assumed): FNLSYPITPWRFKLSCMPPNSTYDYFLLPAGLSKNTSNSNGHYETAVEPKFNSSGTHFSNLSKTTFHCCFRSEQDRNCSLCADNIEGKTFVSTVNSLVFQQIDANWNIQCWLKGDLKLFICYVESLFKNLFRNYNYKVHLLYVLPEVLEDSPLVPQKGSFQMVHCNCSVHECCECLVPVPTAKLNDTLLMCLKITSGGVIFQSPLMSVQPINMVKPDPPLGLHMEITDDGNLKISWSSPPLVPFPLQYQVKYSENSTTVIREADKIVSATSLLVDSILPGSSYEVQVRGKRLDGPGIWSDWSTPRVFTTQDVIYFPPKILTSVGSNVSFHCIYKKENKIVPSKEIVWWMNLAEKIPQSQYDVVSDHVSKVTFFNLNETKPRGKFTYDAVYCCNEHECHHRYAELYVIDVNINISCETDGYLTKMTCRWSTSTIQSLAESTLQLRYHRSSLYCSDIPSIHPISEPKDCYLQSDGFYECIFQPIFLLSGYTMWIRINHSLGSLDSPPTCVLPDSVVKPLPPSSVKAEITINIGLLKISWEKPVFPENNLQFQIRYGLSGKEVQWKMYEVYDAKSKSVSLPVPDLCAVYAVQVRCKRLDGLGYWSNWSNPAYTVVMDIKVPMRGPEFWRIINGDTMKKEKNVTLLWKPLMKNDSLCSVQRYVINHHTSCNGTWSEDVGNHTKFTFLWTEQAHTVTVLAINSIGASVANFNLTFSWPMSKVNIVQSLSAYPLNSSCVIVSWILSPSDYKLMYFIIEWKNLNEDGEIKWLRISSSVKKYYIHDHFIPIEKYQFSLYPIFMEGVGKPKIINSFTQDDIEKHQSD

Anti-human IgG secondary antibody alone: the Binding Ratio in experiment [1] and in experiment [2] was 3 fold each time.
Anti-mouse IgG secondary antibody alone: the Binding Ratio in experiment [1] and in experiment [2] was 2 fold throughout.

The values are drawn from patent publication US12715927.
